The values that follow are results of earlier work, collected in publication PMC8687316.

For orientation: Kd means the free concentration of one partner at which half of the binding sites on the other are occupied at equilibrium, for simple one-to-one binding.

This data set deals with p53 (Homo sapiens) (UniProt P04637).
Sequence of p53 (Homo sapiens) (P04637 whole entry): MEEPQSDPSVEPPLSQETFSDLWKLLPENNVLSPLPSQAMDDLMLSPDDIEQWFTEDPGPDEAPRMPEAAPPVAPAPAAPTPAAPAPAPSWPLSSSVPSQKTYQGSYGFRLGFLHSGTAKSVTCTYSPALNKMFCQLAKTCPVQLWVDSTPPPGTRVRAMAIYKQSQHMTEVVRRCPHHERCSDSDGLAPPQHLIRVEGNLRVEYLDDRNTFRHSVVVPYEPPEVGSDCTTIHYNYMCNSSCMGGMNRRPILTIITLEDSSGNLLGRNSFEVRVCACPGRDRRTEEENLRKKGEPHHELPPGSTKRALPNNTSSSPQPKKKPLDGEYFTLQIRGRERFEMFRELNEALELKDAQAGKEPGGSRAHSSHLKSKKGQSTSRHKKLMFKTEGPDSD

Sequence of Mdm2 (Q00987 whole entry): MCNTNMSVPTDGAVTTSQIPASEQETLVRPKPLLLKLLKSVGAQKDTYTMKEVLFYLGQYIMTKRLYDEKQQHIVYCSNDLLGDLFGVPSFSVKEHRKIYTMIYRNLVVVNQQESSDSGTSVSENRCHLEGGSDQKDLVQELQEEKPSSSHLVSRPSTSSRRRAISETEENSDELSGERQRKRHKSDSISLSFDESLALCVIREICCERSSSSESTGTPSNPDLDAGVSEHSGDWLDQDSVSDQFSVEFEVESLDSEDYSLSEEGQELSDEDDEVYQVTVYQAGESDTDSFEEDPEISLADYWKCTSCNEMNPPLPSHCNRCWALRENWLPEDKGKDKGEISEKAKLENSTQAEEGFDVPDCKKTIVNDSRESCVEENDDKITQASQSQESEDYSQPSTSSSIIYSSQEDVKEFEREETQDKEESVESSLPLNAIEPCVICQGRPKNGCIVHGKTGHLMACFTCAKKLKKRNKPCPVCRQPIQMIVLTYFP

Consider Mdm2 (from UniProt Q00987), for which the Kd was 1.44 nM.
